# Measurements published in patent publication US20250222125A1 (BEIGENE, published 2025).
# B1: BGA1421 (antibody, human IgG1, kappa, V domains shown)
# VH: QVQLVQSGAEVKKPGSSVKVSCKASGYIFTTYNVHWVRQAPGQGLEWIGSIYPDNGDTSYNQNFKGRATITADKSTSTAYMELSSLRSEDTAVYYCARGDFAYWGQGTLVTVSS
# VL: DIQMTQSPSSLSASVGDRVTITCKASQGVSNDVAWYQQKPGKAPKLLIYSASYRYTGVPSRFSGSGSGTDFTFTISSLQPEDIATYYCQQHSTTPYTFGQGTKLEIKR
# notes: also called bemarituzumab; comparator antibody alone (un-conjugated)
# B2: BGAm1371 (antibody, V domains shown)
# VH: QVQLKQSGAELVKPGASVKLSCTASGFNIKDTYIHWVKQRPEQGLEWIGRIDPANGNTMFASEFQGKATITAYTSSNTAYMQLSSLTSGDTAVYYCARSKIHYDYDEGFAYWGQGTLVTVSS
# VL: NIVLTQSPPSLAVSLGQRATVSCRASESVDDYGYSFLHWYQQKPGQPPKLLIYRASNLESGIPARFSGSGSRTDFTLTINPVETDDVATYYCQQSNQNPRTFGGGTKLEIK
# notes: assays detect or capture it with anti-human IgG; also called parental mouse clone; murine parental antibody of BGAh9179
# B3: BGAh9239 (antibody, human IgG1, kappa, V domains shown)
# VH: QVQLVQSGAEVKKPGSSVKVSCKASGYTFSIYWLNWVRQAPGQGLEWMGQIYPENADTNYSGKFKGRVTITADKSTSTAYMELSSLRSEDTAVYFCARGGFDYWGQGTLVTVSS
# VL: DIQMTQSPSSLSASVGDRVTITCRASENIYSNLAWYQQKPGKAPKLLIYTATNLAEGVPSRFSGSGSGTDFTLTISSLQPEDFATYYCQHFYGILYTFGQGTRLEIKR
# notes: also called humanized antibody developed from BGAm1823
# B4: BGA2354 (antibody, human IgG1, lambda, V domains shown)
# VH: EVQLLESGGGLVQPGGSLRLSCAASGFTFRTSGMHWVRQAPGKGLEWVAVISYDGSNKYYADSVKGRFTISRDNSKNTLYLQMNSLRAEDTAVYYCARESPGYDFEYWGQGTLVTVSS
# VL: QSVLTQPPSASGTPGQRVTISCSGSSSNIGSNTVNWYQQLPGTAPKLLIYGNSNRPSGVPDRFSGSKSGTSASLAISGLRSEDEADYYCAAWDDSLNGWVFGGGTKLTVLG
# notes: also called M047 (Bayer; BAY1895344)
# B5: BGAm1823 (antibody, V domains shown)
# VH: EVQLQQSGAELVKPGASVKISCKASGYAFSIYWMNWVKQRPGKGLEWIGQIYPENGDTNYNGKFKGKATLTADKSSSTAYMHLSSLTSEDSAVYFCARGGFDYWGQGTTLTVSS
# VL: NIVMTQSPASLSASVGETVTITCRASENIYSNLAWYQQKQGKSPQLLVYTATNLADGVPSRFSGSGSGTQFSLKINSLQPEDFGSYYCQHFYGILYTFGSGTRLEIK
# notes: assays detect or capture it with anti-human IgG; also called murine parental antibody of BGAh9239
# B6: BGAh9179 (antibody, human IgG1, kappa, V domains shown)
# VH: QVQLVQSGAEVKKPGASVKVSCKASGYTITDTYIHWVRQAPGQGLEWMGRIDPAEGNTMFASEFQGRVTMTADTSTSTVYMELSSLRSEDTAVYYCARSKIHYDYDEGFAYWGQGTLVTVSS
# VL: DIVLTQSPDSLAVSLGERATINCRASESVDDYGYSFLHWYQQKPGQPPKLLIYRASNLESGVPDRFSGSGSGTDFTLTISSLQAEDVAVYYCQQSNQNPRTFGGGTKVEIKR
# notes: also called BGA9179; humanized antibody developed from BGAm1371
# Molecular target: T1, cyno FGFR2b on cells (cyno, UniProt A0A2K5TL97 22-821)
# T1 sequence (A0A2K5TL97 entry or part of it): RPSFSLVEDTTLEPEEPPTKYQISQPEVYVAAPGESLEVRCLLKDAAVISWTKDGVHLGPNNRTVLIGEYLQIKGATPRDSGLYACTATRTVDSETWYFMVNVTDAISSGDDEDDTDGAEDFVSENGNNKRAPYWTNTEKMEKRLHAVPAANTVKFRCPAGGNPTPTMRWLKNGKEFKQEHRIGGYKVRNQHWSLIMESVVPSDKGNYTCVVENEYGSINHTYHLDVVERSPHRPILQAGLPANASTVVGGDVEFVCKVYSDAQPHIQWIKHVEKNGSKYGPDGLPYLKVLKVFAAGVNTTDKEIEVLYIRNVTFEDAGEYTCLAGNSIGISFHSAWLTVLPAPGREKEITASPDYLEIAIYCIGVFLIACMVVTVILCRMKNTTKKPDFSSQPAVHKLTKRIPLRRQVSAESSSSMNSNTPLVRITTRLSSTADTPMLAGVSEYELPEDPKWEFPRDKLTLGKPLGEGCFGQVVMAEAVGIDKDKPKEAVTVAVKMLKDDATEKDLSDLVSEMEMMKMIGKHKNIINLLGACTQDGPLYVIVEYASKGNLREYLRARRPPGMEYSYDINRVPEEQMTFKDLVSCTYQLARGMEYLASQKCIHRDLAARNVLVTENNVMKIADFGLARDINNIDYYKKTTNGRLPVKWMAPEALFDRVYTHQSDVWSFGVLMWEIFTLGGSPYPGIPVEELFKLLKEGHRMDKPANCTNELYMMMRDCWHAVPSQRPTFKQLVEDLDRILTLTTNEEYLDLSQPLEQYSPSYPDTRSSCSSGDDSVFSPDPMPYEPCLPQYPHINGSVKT
# Test: flow cytometry, cyno FGFR2b OE cells
row,Binder,EC50
1,B1,0.49 nM
2,B2,5.02 nM
3,B3,1.55 nM
4,B4,0.34 nM

# Molecular target: T1, cyno FGFR2b on cells
# Test: flow cytometry, Expi293 cells overexpressing cyno FGFR2b
Binder,EC50,Emax (MFI)
B5,6.27 nM,7.36e+06 MFI
B2,4.73 nM,6.19e+06 MFI
B3,7.93 nM,6.88e+06 MFI
B6,8.45 nM,6.25e+06 MFI

# Molecular target: T2, cyno FGFR2b protein (recombinant) (cyno, UniProt A0A2K5TL97 22-380)
# Test: SPR, antibody captured by anti-human Fc, cyno FGFR2b
Binder,Kd,koff,kon
B5,24.6 nM,0.0018 s⁻¹,73500 M⁻¹ s⁻¹
B2,15.7 nM,0.00125 s⁻¹,79700 M⁻¹ s⁻¹
B3,34 nM,0.00272 s⁻¹,79900 M⁻¹ s⁻¹
B6,20.6 nM,0.00172 s⁻¹,83700 M⁻¹ s⁻¹

# Molecular target: T2, cyno FGFR2b protein (recombinant)
# Test: ELISA, plate-coated cyno FGFR2b
Binder,EC50,Emax (A450)
B5,0.0551 nM,3 A450
B2,0.0245 nM,3.02 A450
B3,0.0442 nM,2.93 A450
B6,0.0469 nM,2.95 A450
